Measurements taken from the supplement of paper PMC7877785.
± gives the uncertainty stated by the source.

Experiment: self-splicing fitness, log relative to wild type (ln ratio); higher = more splicing; Tetrahymena group I intron in knt gene, E. coli kanamycin selection, DiMSum; sequences stand for … in CUCUCU…GGAGGGAAAAGUUAUCAGGCAUGCACCUGGUAGCUAGUCUUUAAACCAAUAGAUUGCAUCGGUUUAAAAGGCAAGACCGUCAAAUUGCGGGAAAGGGGUCAACAGCCGUUCAGUACCAAGUCUCAGGGGAAACUUUGAGAUGGCCUUGCAAAGGGUAUGGUAAUAAGCUGACGGACAUGGUCCUAACCACGCAGCCAAGUCCUAAGUCAACAGAUCUUCUGUUGAUAUGGAUGCAGUUCACAGACUAAAUGUCGGUCGGGGAAGAUGUAUUCUUCUCAUAAGAUAUAGUCGGACCUCUCCUUAAUGGGAGCUAGCGGAUGAAGUGAUGCAACACUGGAGCCGCUGGGAACUAAUUUGUAUGCGAAAGUAUAUUGAUUAGUUUUGGAGUACUCGUGGUCG
Method in brief: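 Colonies from six replicate transformations of E. coli BL21(DE3) were pooled and amplicon-sequenced on an Illumina HiSeq 2500. The library placed an intron with all eight P1ex-region nucleotides randomised inside the knt kanamycin-resistance gene on pET-22b(+), and cells grew overnight at 37°C or 30°C on LB agar with or without 25 μg/mL kanamycin (plus 100 μg/mL carbenicillin, 50 μM IPTG, 0.2% rhamnose). Fitness is the DiMSum error-weighted combination of wild-type-normalised replicate fold changes, kanamycin versus none.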

Sequence	self-splicing fitness (ln) (30 °C)	self-splicing fitness (ln) (37 °C)
AACUAGCAAUAUUACGGUUC	-4.49 ± 0.24	-2.94 ± 0.21
AACUAGCAAUAUUACGUAGG	-2.36 ± 0.11	-1.29 ± 0.12
AACUAGCAAUAUUACGUCUG	-1.86 ± 0.088	-1.37 ± 0.088
AACUAGCAAUAUUACGUGAU	-1.71 ± 0.11	-1.09 ± 0.13
AACUAGCAAUAUUACGUGUG	-1.47 ± 0.051	-0.869 ± 0.067
AACUAGCAAUAUUACGUUUA	-1.98 ± 0.11	-1.1 ± 0.11
AAGAAGCAAUAUUACGAACC	-0.581 ± 0.14	-0.25 ± 0.17
AAGAAGCAAUAUUACGACCG	-1.05 ± 0.088	0.483 ± 0.14
AAGAAGCAAUAUUACGACUG	-0.231 ± 0.089	0.323 ± 0.16
AAGAAGCAAUAUUACGAGGA	-3.43 ± 0.28	-2.98 ± 0.3
AAGAAGCAAUAUUACGAGUU	-1.15 ± 0.079	-0.169 ± 0.11
AAGAAGCAAUAUUACGAUAC	-2.94 ± 0.19	-1.31 ± 0.17
AAGAAGCAAUAUUACGAUCC	-0.553 ± 0.14	-0.745 ± 0.18
AAGAAGCAAUAUUACGAUCU	0.00748 ± 0.089	-0.373 ± 0.11
AAGAAGCAAUAUUACGAUGG	-1.93 ± 0.14	-2 ± 0.22
AAGAAGCAAUAUUACGAUUG	-2.85 ± 0.26	-1.78 ± 0.19
AAGAAGCAAUAUUACGCAGC	-3.17 ± 0.38	-2.12 ± 0.22
AAGAAGCAAUAUUACGCAUC	-1.92 ± 0.22	-0.986 ± 0.2
AAGAAGCAAUAUUACGCCCG	-0.579 ± 0.18	-1.38 ± 0.23
AAGAAGCAAUAUUACGCUCA	-0.0265 ± 0.13	-0.132 ± 0.12
AAGAAGCAAUAUUACGCUUA	-1.05 ± 0.12	-0.977 ± 0.13
AAGAAGCAAUAUUACGGCUA	-0.552 ± 0.077	-0.0286 ± 0.1
AAGAAGCAAUAUUACGGUAC	-2.37 ± 0.19	-2.96 ± 0.33
AAGAAGCAAUAUUACGGUCA	-0.625 ± 0.088	0.197 ± 0.1
AAGAAGCAAUAUUACGUACA	-0.642 ± 0.1	-0.0821 ± 0.12
AAGAAGCAAUAUUACGUAUG	-1.93 ± 0.11	-1.14 ± 0.1

Sequence	self-splicing fitness (ln) (30 °C)	self-splicing fitness (ln) (37 °C)
AAGAAGCAAUAUUACGUCGG	-0.907 ± 0.12	-1.02 ± 0.14
AAGAAGCAAUAUUACGUGCC	-1.01 ± 0.11	-1.14 ± 0.11
AAGAAGCAAUAUUACGUUUC	-3.62 ± 0.23	-3.15 ± 0.26
AAGCAGCAAUAUUACGAAGG	-2.99 ± 0.16	-3.01 ± 0.26
AAGCAGCAAUAUUACGAGAC		-0.225 ± 0.15
AAGCAGCAAUAUUACGAUUC	-1.73 ± 0.081	-0.707 ± 0.092
AAGCAGCAAUAUUACGCCAA	-2.31 ± 0.21	-2.04 ± 0.21
AAGCAGCAAUAUUACGCGGG	-1.43 ± 0.078	-1.27 ± 0.1
AAGCAGCAAUAUUACGCGUG	-3.76 ± 0.14	-2.25 ± 0.11
AAGCAGCAAUAUUACGCUCG	-1.67 ± 0.15	0.286 ± 0.14
AAGCAGCAAUAUUACGGCCA	-0.775 ± 0.18	0.116 ± 0.25
AAGCAGCAAUAUUACGGCCG	-0.9 ± 0.11	-0.057 ± 0.17
AAGCAGCAAUAUUACGGCCU	-0.182 ± 0.057	0.636 ± 0.074
AAGCAGCAAUAUUACGGGCG	-0.645 ± 0.065	-0.638 ± 0.099
AAGCAGCAAUAUUACGGUGA	-0.827 ± 0.1	-1.15 ± 0.092
AAGCAGCAAUAUUACGUAGC	-3.19 ± 0.15	-1.94 ± 0.16
AAGCAGCAAUAUUACGUAUA	-2.85 ± 0.19	-2.69 ± 0.19
AAGCAGCAAUAUUACGUCGC	-2.95 ± 0.19	-2.51 ± 0.31
AAGCAGCAAUAUUACGUCGU	-2.51 ± 0.095	-0.636 ± 0.12
AAGCAGCAAUAUUACGUCUG	-4.47 ± 0.37	-1.72 ± 0.26
AAGCAGCAAUAUUACGUGAU	-2.39 ± 0.081	-1.49 ± 0.11
AAGCAGCAAUAUUACGUGGU	-4.16 ± 0.2	-1.27 ± 0.11
AAGCAGCAAUAUUACGUUAA	-1.76 ± 0.12	-2.14 ± 0.14
AAGGAGCAAUAUUACGAAUA	-2.18 ± 0.27	-2.77 ± 0.38
AAGGAGCAAUAUUACGACGA	-1.94 ± 0.15	-0.382 ± 0.11
AAGGAGCAAUAUUACGAGGC	-2.89 ± 0.17	-2.41 ± 0.44

Sequence	self-splicing fitness (ln) (30 °C)	self-splicing fitness (ln) (37 °C)
AAGGAGCAAUAUUACGAUGG	-3.59 ± 0.27	-2.11 ± 0.23
AAGGAGCAAUAUUACGCACC		-1.22 ± 0.3
AAGGAGCAAUAUUACGCAGU	-3.65 ± 0.43	-1.38 ± 0.19
AAGGAGCAAUAUUACGCAUA	-2.45 ± 0.49	
AAGGAGCAAUAUUACGCAUG	-3.28 ± 0.22	-2.65 ± 0.22
AAGGAGCAAUAUUACGCCCG	-1.88 ± 0.17	-1.01 ± 0.22
AAGGAGCAAUAUUACGCGAG	-2.86 ± 0.19	-2.23 ± 0.19
AAGGAGCAAUAUUACGCUCG	-0.454 ± 0.13	-0.814 ± 0.17
AAGGAGCAAUAUUACGCUGU	-2.59 ± 0.22	-1.64 ± 0.23
AAGGAGCAAUAUUACGGAAG	-3.7 ± 0.34	-1.63 ± 0.25
AAGGAGCAAUAUUACGGACU	-1.99 ± 0.16	-0.907 ± 0.19
AAGGAGCAAUAUUACGGCCA	-1.83 ± 0.19	-1.66 ± 0.27
AAGGAGCAAUAUUACGGCGU	-1.33 ± 0.13	-0.923 ± 0.12
AAGGAGCAAUAUUACGGGCG	-4.03 ± 0.39	-1.87 ± 0.31
AAGGAGCAAUAUUACGGUCA		-2.26 ± 0.32
AAGGAGCAAUAUUACGGUUG	-2.52 ± 0.17	-3.27 ± 0.32
AAGGAGCAAUAUUACGUCUG	-1.18 ± 0.15	-0.52 ± 0.27
AAGGAGCAAUAUUACGUGGG	-2.68 ± 0.18	-2.68 ± 0.17
AAGGAGCAAUAUUACGUGGU	-2.94 ± 0.2	-1.36 ± 0.22
AAGGAGCAAUAUUACGUUAC		-1.53 ± 0.35
AAGGAGCAAUAUUACGUUAG	-3.67 ± 0.18	-2.95 ± 0.22
AAGGAGCAAUAUUACGUUCU	-2.47 ± 0.14	-1.09 ± 0.12
AAGUAGCAAUAUUACGAAUC	-2.13 ± 0.22	-1.4 ± 0.25
AAGUAGCAAUAUUACGACUU	-0.629 ± 0.11	-1.34 ± 0.13
AAGUAGCAAUAUUACGAGAG	-3.09 ± 0.22	-1.05 ± 0.21
